Measurements reported in IntAct's records for PubMed 29892012.

B1: Ubiquitin domain-containing protein 2 (Homo sapiens), Q8WUN7 (parent)
chain: MGGCVGAQHDSSGSLNENSEGTGVALGRNQPLKKEKPKWKSDYPMTDGQLRSKRDEFWDTAPAFEGRKEIWDALKAAAHAFESNDHELAQAIIDGANITLPHGALTECYDELGNRYQLPVYCLAPPINMIEEKSDIETLDIPEPPPNSGYECQLRLRLSTGKDLKLVVRSTDTVFHMKRRLHAAEGVEPGSQRWFFSGRPLTDKMKFEELKIPKDYVVQVIVSQPVQNPTPVEN
partner: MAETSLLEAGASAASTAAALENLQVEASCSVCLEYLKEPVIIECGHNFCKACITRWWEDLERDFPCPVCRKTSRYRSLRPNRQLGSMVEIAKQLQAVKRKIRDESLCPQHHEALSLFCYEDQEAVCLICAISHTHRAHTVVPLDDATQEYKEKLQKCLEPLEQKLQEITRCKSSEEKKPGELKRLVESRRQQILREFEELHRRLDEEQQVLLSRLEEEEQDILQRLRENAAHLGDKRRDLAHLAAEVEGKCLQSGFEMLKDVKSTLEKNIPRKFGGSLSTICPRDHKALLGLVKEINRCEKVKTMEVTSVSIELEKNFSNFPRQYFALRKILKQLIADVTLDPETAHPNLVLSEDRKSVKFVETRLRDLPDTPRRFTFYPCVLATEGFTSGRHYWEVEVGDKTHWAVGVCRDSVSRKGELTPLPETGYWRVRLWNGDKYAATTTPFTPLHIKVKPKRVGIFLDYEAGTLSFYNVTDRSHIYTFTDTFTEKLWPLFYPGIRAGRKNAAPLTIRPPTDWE
B2: Centrosomal protein POC5 (Homo sapiens), Q8NA72 (parent)
chain: MSSDEEKYSLPVVQNDSSRGSSVSSNLQEEYEELLHYAIVTPNIEPCASQSSHPKGELVPDVRISTIHDILHSQGNNSEVRETAIEVGKGCDFHISSHSKTDESSPVLSPRKPSHPVMDFFSSHLLADSSSPATNSSHTDAHEILVSDFLVSDENLQKMENVLDLWSSGLKTNIISELSKWRLNFIDWHRMEMRKEKEKHAAHLKQLCNQINELKELQKTFEISIGRKDEVISSLSHAIGKQKEKIELMRTFFHWRIGHVRARQDVYEGKLADQYYQRTLLKKVWKVWRSVVQKQWKDVVERACQARAEEVCIQISNDYEAKVAMLSGALENAKAEIQRMQHEKEHFEDSMKKAFMRGVCALNLEAMTIFQNRNDAGIDSTNNKKEEYGPGVQGKEHSAHLDPSAPPMPLPVTSPLLPSPPAAVGGASATAVPSAASMTSTRAASASSVHVPVSALGAGSAATAASEEMYVPRVVTSAQQKAGRTITARITGRCDFASKNRISSSLAIMGVSPPMSSVVVEKHHPVTVQTIPQATAAKYPRTIHPESSTSASRSLGTRSAHTQSLTSVHSIKVVD
B3: E3 ubiquitin-protein ligase LNX (Homo sapiens), Q8TBB1 (parent)
chain: MNQPESANDPEPLCAVCGQAHSLEENHFYSYPEEVDDDLICHICLQALLDPLDTPCGHTYCTLCLTNFLVEKDFCPMDRKPLVLQHCKKSSILVNKLLNKLLVTCPFREHCTQVLQRCDLEHHFQTSCKGASHYGLTKDRKRRSQDGCPDGCASLTATAPSPEVSAAATISLMTDEPGLDNPAYVSSAEDGQPAISPVDSGRSNRTRARPFERSTIRSRSFKKINRALSVLRRTKSGSAVANHADQGRENSENTTAPEVFPRLYHLIPDGEITSIKINRVDPSESLSIRLVGGSETPLVHIIIQHIYRDGVIARDGRLLPGDIILKVNGMDISNVPHNYAVRLLRQPCQVLWLTVMREQKFRSRNNGQAPDAYRPRDDSFHVILNKSSPEEQLGIKLVRKVDEPGVFIFNVLDGGVAYRHGQLEENDRVLAINGHDLRYGSPESAAHLIQASERRVHLVVSRQVRQRSPDIFQEAGWNSNGSWSPGPGERSNTPKPLHPTITCHEKVVNIQKDPGESLGMTVAGGASHREWDLPIYVISVEPGGVISRDGRIKTGDILLNVDGVELTEVSRSEAVALLKRTSSSIVLKALEVKEYEPQEDCSSPAALDSNHNMAPPSDWSPSWVMWLELPRCLYNCKDIVLRRNTAGSLGFCIVGGYEEYNGNKPFFIKSIVEGTPAYNDGRIRCGDILLAVNGRSTSGMIHACLARLLKELKGRITLTIVSWPGTFL
partner: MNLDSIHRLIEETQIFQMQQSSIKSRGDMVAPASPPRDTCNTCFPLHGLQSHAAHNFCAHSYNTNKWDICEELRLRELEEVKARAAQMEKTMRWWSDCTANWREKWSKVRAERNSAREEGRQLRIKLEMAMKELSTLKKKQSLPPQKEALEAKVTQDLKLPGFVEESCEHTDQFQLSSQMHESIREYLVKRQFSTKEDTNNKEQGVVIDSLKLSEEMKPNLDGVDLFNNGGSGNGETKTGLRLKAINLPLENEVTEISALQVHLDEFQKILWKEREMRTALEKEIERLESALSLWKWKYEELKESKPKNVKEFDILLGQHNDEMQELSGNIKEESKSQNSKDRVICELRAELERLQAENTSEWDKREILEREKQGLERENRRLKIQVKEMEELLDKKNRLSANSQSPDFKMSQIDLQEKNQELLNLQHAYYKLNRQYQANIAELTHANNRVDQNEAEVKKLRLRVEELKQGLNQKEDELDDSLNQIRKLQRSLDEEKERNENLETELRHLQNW
B4: E3 ubiquitin-protein ligase LNX (Homo sapiens), Q8TBB1 (parent)
chain: B3 chain
partner: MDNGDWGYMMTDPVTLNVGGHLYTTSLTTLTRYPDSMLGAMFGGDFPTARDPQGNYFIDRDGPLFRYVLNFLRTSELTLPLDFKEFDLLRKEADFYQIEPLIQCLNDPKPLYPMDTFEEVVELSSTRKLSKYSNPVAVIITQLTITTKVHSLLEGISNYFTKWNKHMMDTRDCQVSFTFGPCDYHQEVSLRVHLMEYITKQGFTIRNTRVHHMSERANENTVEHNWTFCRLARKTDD
B5: BRCA1-A complex subunit RAP80 (Homo sapiens), Q96RL1 (parent)
chain: MPRRKKKVKEVSESRNLEKKDVETTSSVSVKRKRRLEDAFIVISDSDGEEPKEENGLQKTKTKQSNRAKCLAKRKIAQMTEEEQFALALKMSEQEAREVNSQEEEEEELLRKAIAESLNSCRPSDASATRSRPLATGPSSQSHQEKTTDSGLTEGIWQLVPPSLFKGSHISQGNEAEEREEPWDHTEKTEEEPVSGSSGSWDQSSQPVFENVNVKSFDRCTGHSAEHTQCGKPQESTGRGSAFLKAVQGSGDTSRHCLPTLADAKGLQDTGGTVNYFWGIPFCPDGVDPNQYTKVILCQLEVYQKSLKMAQRQLLNKKGFGEPVLPRPPSLIQNECGQGEQASEKNECISEDMGDEDKEERQESRASDWHSKTKDFQESSIKSLKEKLLLEEEPTTSHGQSSQGIVEETSEEGNSVPASQSVAALTSKRSLVLMPESSAEEITVCPETQLSSSETFDLEREVSPGSRDILDGVRIIMADKEVGNKEDAEKEVAISTFSSSNQVSCPLCDQCFPPTKIERHAMYCNGLMEEDTVLTRRQKEAKTKSDSGTAAQTSLDIDKNEKCYLCKSLVPFREYQCHVDSCLQLAKADQGDGPEGSGRACSTVEGKWQQRLKNPKEKGHSEGRLLSFLEQSEHKTSDADIKSSETGAFRVPSPGMEEAGCSREMQSSFTRRDLNESPVKSFVSISEATDCLVDFKKQVTVQPGSRTRTKAGRGRRRKF
partner: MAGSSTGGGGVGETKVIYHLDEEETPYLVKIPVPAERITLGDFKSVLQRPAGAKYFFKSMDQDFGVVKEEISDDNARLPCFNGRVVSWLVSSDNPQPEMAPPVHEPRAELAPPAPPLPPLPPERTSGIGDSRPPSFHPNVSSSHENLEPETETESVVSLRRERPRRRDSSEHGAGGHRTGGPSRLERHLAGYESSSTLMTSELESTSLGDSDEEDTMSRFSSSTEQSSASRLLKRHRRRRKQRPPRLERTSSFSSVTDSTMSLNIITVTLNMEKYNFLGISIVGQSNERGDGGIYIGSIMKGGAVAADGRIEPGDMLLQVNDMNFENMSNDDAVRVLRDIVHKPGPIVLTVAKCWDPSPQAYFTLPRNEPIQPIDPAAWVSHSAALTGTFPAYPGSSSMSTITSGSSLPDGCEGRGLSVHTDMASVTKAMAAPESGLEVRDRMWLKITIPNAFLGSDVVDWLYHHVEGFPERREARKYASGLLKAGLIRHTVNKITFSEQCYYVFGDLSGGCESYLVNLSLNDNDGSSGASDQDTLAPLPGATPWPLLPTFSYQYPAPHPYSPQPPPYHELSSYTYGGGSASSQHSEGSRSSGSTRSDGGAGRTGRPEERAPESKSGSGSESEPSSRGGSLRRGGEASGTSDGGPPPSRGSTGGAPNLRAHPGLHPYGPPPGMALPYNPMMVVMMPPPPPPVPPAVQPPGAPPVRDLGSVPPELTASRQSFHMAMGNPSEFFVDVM
B6: Ras GTPase-activating protein-binding protein 2 (Homo sapiens), Q9UN86 (parent)
chain: MVMEKPSPLLVGREFVRQYYTLLNKAPEYLHRFYGRNSSYVHGGVDASGKPQEAVYGQNDIHHKVLSLNFSECHTKIRHVDAHATLSDGVVVQVMGLLSNSGQPERKFMQTFVLAPEGSVPNKFYVHNDMFRYEDEVFGDSEPELDEESEDEVEEEQEERQPSPEPVQENANSGYYEAHPVTNGIEEPLEESSHEPEPEPESETKTEELKPQVEEKNLEELEEKSTTPPPAEPVSLPQEPPKAFSWASVTSKNLPPSGTVSSSGIPPHVKAPVSQPRVEAKPEVQSQPPRVREQRPRERPGFPPRGPRPGRGDMEQNDSDNRRIIRYPDSHQLFVGNLPHDIDENELKEFFMSFGNVVELRINTKGVGGKLPNFGFVVFDDSEPVQRILIAKPIMFRGEVRLNVEEKKTRAARERETRGGGDDRRDIRRNDRGPGGPRGIVGGGMMRDRDGRGPPPRGGMAQKLGSGRGTGQMEGRFTGQRR

Variants of: B1
Conditions: with tri39_human TRIM39, Q9HCM9

effect of a mutation on the interaction | Variant
with no effect | MGGCVGAQHDSSGSLNENSEGTGVALGRNQPLKKEKPKWKSDYPMTDGQLRSKRDEFWDTAPAFEGRKEIWDALKAAAHAFESNDHELAQAIIDGANITLPHGALTECYDELGNRYQLPVYCLAPPINMIEEKSDIETLDIPEPPPNSGYECQLRLRLSTGKDLKLVVRSTDTVFHMKRWLHAAEGVEPGSQRWFFSGRPLTDKMKFEELKIPKDYVVQVIVSQPVQNPTPVEN [R180W]

Variants of: B2
Conditions: with cetn1_human CETN1, Q12798
cetn1_human CETN1, Q12798, sequence (Q12798 whole entry): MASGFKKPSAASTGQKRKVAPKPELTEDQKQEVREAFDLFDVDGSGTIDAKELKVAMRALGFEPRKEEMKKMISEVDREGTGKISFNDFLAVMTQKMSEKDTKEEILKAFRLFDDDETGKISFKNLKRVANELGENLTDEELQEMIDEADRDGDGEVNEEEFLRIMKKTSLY

effect of a mutation on the interaction | Variant
with no effect | MSSDEEKYSLPVVQNDSSRGSSVSSNLQEEYEELLHYAIVTPNIEPCASQSSHPKGELVPDVRISTIHDILHSQGNNSEVRETAIEVGKGCDFHISSHSKTDESSPVLSPRKPSHPVMDFFSSHLLADSSSPATNSSHTDAHEILVSDFLVSDENLQKMENVLDLWSSGLKTNIISELSKWRLNFIDWHRMEMRKEKEKHAAHLKQLCNQINELKELQKTFEISIGRKDEVISSLSHAIGKQKEKIELMRTFFHWRIGHVRARQDVYEGKLADQYYQRTLLKKVWKVWRSVVQKQWKDVVERACQARAEEVCIQISNDYEAKVAMLSGALENAKAEIQRMQHEKEHFEDSMKKAFMRGVCALNLEAMTIFQNRNDAGIDSTNNKKEEYGPGVQGKEHSAHLDPSAPPMPLPVTSPLLPSPPAAVGGASATAVPSAASMTSTRAASASSVHVPVSALGAGSAATAASEETYVPRVVTSAQQKAGRTITARITGRCDFASKNRISSSLAIMGVSPPMSSVVVEKHHPVTVQTIPQATAAKYPRTIHPESSTSASRSLGTRSAHTQSLTSVHSIKVVD [M469T]

Variants of: B2
Conditions: with cetn2_human CETN2, P41208
cetn2_human CETN2, P41208, sequence (P41208 whole entry): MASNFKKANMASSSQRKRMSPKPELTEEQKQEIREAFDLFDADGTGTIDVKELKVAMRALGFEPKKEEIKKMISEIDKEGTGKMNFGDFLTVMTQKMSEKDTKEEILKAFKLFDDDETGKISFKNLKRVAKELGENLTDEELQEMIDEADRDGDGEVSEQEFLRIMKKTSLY

effect of a mutation on the interaction | Variant
with no effect | MSSDEEKYSLPVVQNDSSRGSSVSSNLQEEYEELLHYAIVTPNIEPCASQSSHPKGELVPDVRISTIHDILHSQGNNSEVRETAIEVGKGCDFHISSHSKTDESSPVLSPRKPSHPVMDFFSSHLLADSSSPATNSSHTDAHEILVSDFLVSDENLQKMENVLDLWSSGLKTNIISELSKWRLNFIDWHRMEMRKEKEKHAAHLKQLCNQINELKELQKTFEISIGRKDEVISSLSHAIGKQKEKIELMRTFFHWRIGHVRARQDVYEGKLADQYYQRTLLKKVWKVWRSVVQKQWKDVVERACQARAEEVCIQISNDYEAKVAMLSGALENAKAEIQRMQHEKEHFEDSMKKAFMRGVCALNLEAMTIFQNRNDAGIDSTNNKKEEYGPGVQGKEHSAHLDPSAPPMPLPVTSPLLPSPPAAVGGASATAVPSAASMTSTRAASASSVHVPVSALGAGSAATAASEETYVPRVVTSAQQKAGRTITARITGRCDFASKNRISSSLAIMGVSPPMSSVVVEKHHPVTVQTIPQATAAKYPRTIHPESSTSASRSLGTRSAHTQSLTSVHSIKVVD [M469T]

Variants of: B3
Conditions: with CCDC102B

effect of a mutation on the interaction | Variant
disrupting interaction strength | E295K

Variants of: B4
Conditions: with kctd6_human KCTD6, Q8NC69

effect of a mutation on the interaction | Variant
disrupting interaction strength | E295K

Variants of: B5
Conditions: with dvl2_human DVL2, O14641

effect of a mutation on the interaction | Variant
disrupting interaction strength | R34H

Variants of: B5
Conditions: with dvl2_human DVL2, O14641
Remark: another data set of the same source

effect of a mutation on the interaction | Variant
with no effect | Q631E

Variants of: B6
Conditions: with ubp10_human USP10, Q14694
ubp10_human USP10, Q14694, sequence (Q14694 whole entry): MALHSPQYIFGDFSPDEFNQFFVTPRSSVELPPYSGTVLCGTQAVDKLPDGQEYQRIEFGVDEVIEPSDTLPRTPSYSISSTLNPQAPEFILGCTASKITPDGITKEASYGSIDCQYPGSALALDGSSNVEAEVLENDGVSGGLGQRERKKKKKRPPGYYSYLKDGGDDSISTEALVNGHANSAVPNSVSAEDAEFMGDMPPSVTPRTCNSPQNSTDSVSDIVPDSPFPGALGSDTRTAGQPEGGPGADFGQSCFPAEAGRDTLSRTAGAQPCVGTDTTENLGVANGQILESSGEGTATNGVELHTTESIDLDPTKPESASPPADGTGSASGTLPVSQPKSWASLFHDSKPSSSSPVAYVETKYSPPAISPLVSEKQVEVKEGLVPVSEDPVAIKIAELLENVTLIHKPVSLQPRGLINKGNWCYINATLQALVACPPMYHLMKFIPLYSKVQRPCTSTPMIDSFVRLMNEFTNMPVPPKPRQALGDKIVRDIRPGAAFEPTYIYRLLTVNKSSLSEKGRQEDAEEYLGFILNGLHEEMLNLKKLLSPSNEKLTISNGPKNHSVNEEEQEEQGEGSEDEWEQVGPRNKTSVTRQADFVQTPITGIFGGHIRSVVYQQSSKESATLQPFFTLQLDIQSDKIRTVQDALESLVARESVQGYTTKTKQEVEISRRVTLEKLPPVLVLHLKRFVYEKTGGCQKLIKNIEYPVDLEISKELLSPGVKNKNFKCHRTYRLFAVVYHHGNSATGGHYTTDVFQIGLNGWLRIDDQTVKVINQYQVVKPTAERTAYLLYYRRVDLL

effect of a mutation on the interaction | Variant
with no effect | MVMEKPSPLLVGREFVRQYYTLLNKAPEYLHRFYGRNSSYVHGGVDASGKPQEAVYGQNDIHHKVLSLNFSECHTKIRHVDAHATLSDGVVVQVMGLLSNSGQPERKFMQTFVLAPEGSVPNKFYVHNDMFRYEDEVFGDSEPELDEESEDEVEEEQEERQPSPEPVQENANSGYYEAHPVTNGIEEPLEESSHEPEPEPESETKTEEPKPQVEEKNLEELEEKSTTPPPAEPVSLPQEPPKAFSWASVTSKNLPPSGTVSSSGIPPHVKAPVSQPRVEAKPEVQSQPPRVREQRPRERPGFPPRGPRPGRGDMEQNDSDNRRIIRYPDSHQLFVGNLPHDIDENELKEFFMSFGNVVELRINTKGVGGKLPNFGFVVFDDSEPVQRILIAKPIMFRGEVRLNVEEKKTRAARERETRGGGDDRRDIRRNDRGPGGPRGIVGGGMMRDRDGRGPPPRGGMAQKLGSGRGTGQMEGRFTGQRR [L209P]
